Data set [1] in a line: CD thermal denaturation; protein alone, 2 µM dimer, ellipticity at 222 nm, heated from 6–85 °C, two-state fit; KD at 25 °C calculated from ΔGDi; dimer to monomers. Particulars: other: CD thermal denaturation.
In data set [2] the target is bZIP10 DNA binding domain and leucine zipper region (V216-S301) (Arabidopsis thaliana). Described as above.
The target is the same in data set [3]. Briefly: native MS; ESI-MS in unbuffered MS grade water, 2 µM homodimer, 4 µM heterodimer mixtures, samples kept at 23 ± 2 °C, ion spray interface temperature switched off, declustering potential 10 V.
The target of data set [4] is Q9LZP8. The data set can be described thus: CD thermal denaturation; protein alone, 2 µM dimer, ellipticity at 222 nm, heated from 6–85 °C, two-state fit; KD at 25 °C calculated from ΔGDi; dimer to monomers. The settings on record: other: CD thermal denaturation.
Data set [5] deals with the molecule itself. The data set is described as above.
Data set [6] concerns the molecule itself. The data set can be described thus: native MS; ESI-MS in unbuffered MS grade water, 2 µM homodimer, 4 µM heterodimer mixtures, samples kept at 23 ± 2 °C, ion spray interface temperature switched off, declustering potential 10 V.
Data set [7] deals with T1, bZIP25 DNA binding domain and leucine zipper region (V230-S322) (Arabidopsis thaliana (Mouse-ear cress), UniProt Q9M1G6).
T1 chain: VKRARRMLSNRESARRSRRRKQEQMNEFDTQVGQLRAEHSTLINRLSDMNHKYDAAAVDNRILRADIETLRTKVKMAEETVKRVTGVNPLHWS
Briefly: CD thermal denaturation (222 nm) of equimolar mix versus sum curve, plus ESI-MS; absence of DNA; the paper concludes heterodimerization is DNA-mediated (synergistic reporter activation in protoplasts).

Data set [8] has as its target Q9SJN0. The data set can be described thus: CD thermal denaturation; protein alone, 2 µM dimer, ellipticity at 222 nm, heated from 6–85 °C, two-state fit; KD at 25 °C calculated from ΔGDi; dimer to monomers. Particulars: other: CD thermal denaturation.
For data set [9], the target named is Q9M1G6. Described as above. Particulars: other: CD thermal denaturation.

What is called Kd is the constant that tells how readily two partners part at equilibrium. As a reminder, the stoichiometry N is a count of units in the complex or per binding partner.

As to “bZIP72 DNA binding domain and leucine zipper region (D48-T150)”, the dH (ΔHm, at Tm) in data set [1] is -57.3 kcal/mol.

Turning to “bZIP10 DNA binding domain and leucine zipper region (V216-S301)”, in data set [1], the dH (ΔHm, at Tm) was -41.1 kcal/mol.

On to “bZIP10 DNA binding domain and leucine zipper region (V216-S301) (domain or fragment)”, for which the dissociation constant (Kd) in data set [2] is 3 nM. In data set [3], the stoichiometry N was found to be 2.

B1: bZIP53 DNA binding domain and leucine zipper region (Y18-D116) (domain or fragment, Arabidopsis thaliana, UniProt Q9LZP8 18-116, looked up)
chain: YATVTDERKRKRMISNRESARRSRMRKQKQLGDLINEVTLLKNDNAKITEQVDEASKKYIEMESKNNVLRAQASELTDRLRSLNSVLEMVEEISGQALD
notes: An internal HindIII site of the amplicon was destroyed by site-directed mutagenesis; Measured monomer mass 12957 Da; In the protoplast reporter assays the full-length protein was expressed from a plasmid; also called basic leucine zipper 53; source: E. coli BL21 (DE-3), HPLC purified
On to B1, for which the dH (ΔHm, at Tm) in data set [4] was -35.5 kcal/mol. Moreover, the Kd in [5] is 50 nM. Also, the “stoichiometry N” value in data set [6] came to 2. Besides, the binding result in data set [7] is given as “no binding”.

B2: bZIP39 DNA binding domain and leucine zipper region (V351-L442) (protein)
chain: VEKVVERRQRRMIKNRESAARSRARKQAYTVELEAELNQLKEENAQLKHALAELERKRKQQYFESLKSRAQPKLPKSNGRLRTLMRNPSCPL
For the molecule B2, in data set [8], the dH (ΔHm, at Tm) was -43.2 kcal/mol.

B3: bZIP25 DNA binding domain and leucine zipper region (V230-S322) (domain or fragment, Arabidopsis thaliana, UniProt Q9M1G6 230-322, looked up)
chain: VKRARRMLSNRESARRSRRRKQEQMNEFDTQVGQLRAEHSTLINRLSDMNHKYDAAAVDNRILRADIETLRTKVKMAEETVKRVTGVNPLHWS
notes: In the protoplast reporter assays the full-length protein was expressed from a plasmid; source: E. coli BL21 (DE-3), HPLC purified
On to B3, for which the dH (ΔHm, at Tm) in data set [9] is -55.3 kcal/mol. Besides, the Kd in data set [5] is 0.05 nM. Besides, the “stoichiometry N” value in data set [6] turned out to be 2.

Source of the values: article PMC5662769, “A-ZIP53, a dominant negative reveals the molecular mechanism of heterodimerization between bZIP53, bZIP10 and bZIP25 involved in Arabidopsis seed maturation” (Scientific Reports, 2017).
